# Laboratory results from US20040014658A1 (PROCHON BIOTECH, published 2004).
# B1: FGFR3 of wild type mouse femora (receptor)
# chain: EPPGPEQRVVRRAAEVPGPEPSQQEQVAFGSGDTVELSCHPPGGAPTGPTVWAKDGTGLVASHRILVGPQRLQVLNASHEDAGVYSCQHRLTRRVLCHFSVRVTDAPSSGDDEDGEDVAEDTGAPYWTRPERMDKKLLAVPAANTVRFRCPAAGNPTPSISWLKNGKEFRGEHRIGGIKLRHQQWSLVMESVVPSDRGNYTCVVENKFGSIRQTYTLDVLERSPHRPILQAGLPANQTAILGSDVEFHCKVYSDAQPHIQWLKHVEVNGSKVGPDGTPYVTVLKTAGANTTDKELEVLSLHNVTFEDAGEYTCLAGNSIGFSHHSAWLVVLPAEEELMETDEAGSVYAGVLSYGVVFFLFILVVAAVILCRLRSPPKKGLGSPTVHKVSRFPLKRQVSLESNSSMNSNTPLVRIARLSSGEGPVLANVSELELPADPKWELSRTRLTLGKPLGEGCFGQVVMAEAIGIDKDRTAKPVTVAVKMLKDDATDKDLSDLVSEMEMMKMIGKHKNIINLLGACTQGGPLYVLVEYAAKGNLREFLRARRPPGMDYSFDACRLPEEQLTCKDLVSCAYQVARGMEYLASQKCIHRDLAARNVLVTEDNVMKIADFGLARDVHNLDYYKKTTNGRLPVKWMAPEALFDRVYTHQSDVWSFGVLLWEIFTPGGPSPYPGIPVEELFKLLKEGHRMDKPASCTHDLYMIMRECWHAVPSQRPTFKQLVEDLDRILTVTSTDEYLDLSVPFEQYSPGGQDTPSSSSSGDDSVFTHDLLPPGPPSNGGPRT
# notes: whole, on cells; Endogenous receptor in bone tissue culture
# Molecular target: L37M-W144G-FGF9 (human, UniProt P31371 38-208)
# Assay: ex vivo mouse femur growth with FGFR3 neutralizing Fab MSPRO-59 (inferred)
# Experimental: Femoral bone cultures were performed by excising the hind limbs of wild type mice. The limbs were carefully cleaned from the surrounding tissue (skin and muscles) and the femora exposed. The femora were removed and further cleared from tissue remains and ligaments. The femora were measured for their initial length, using a binocular with an eyepiece micrometer ruler. […] In addition, the medium contains BSA (0.2%), β-glycerophosphate (1 mM) and freshly prepared ascorbic acid (50 μg/ml). The bones were cultured for 15 days. Measurements of bone length and medium replacement were performed every three days.
binder,measurement,value
B1,binding result,binds
